Earlier results, collected in patent publication US20260250369A1, “METHODS OF TREATING LIVER FIBROSIS, INFLAMMATION OR ASSOCIATED DISEASES USING AN ANGPTL4 ANTAGONIST” (Nanyang Technological University, priority 2022, published 2026).

Molecular target: T1, human cANGPTL4 (Homo sapiens, UniProt Q9BY76)
T1 sequence (Q9BY76 186-406 limits assumed): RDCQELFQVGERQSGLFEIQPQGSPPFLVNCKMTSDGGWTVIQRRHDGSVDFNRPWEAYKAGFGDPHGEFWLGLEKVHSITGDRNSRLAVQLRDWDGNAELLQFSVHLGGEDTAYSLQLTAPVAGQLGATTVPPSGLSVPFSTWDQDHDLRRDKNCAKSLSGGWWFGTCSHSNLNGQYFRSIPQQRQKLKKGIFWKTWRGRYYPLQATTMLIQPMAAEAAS

Effect on mitochondrial activities and glucose regulations of ANGPTL4: does not affect
B1: mAb11F6C4: murine monoclonal antibody directed against human cANGPTL4; heavy chain SEQ ID NO 15, light chain SEQ ID NO 16 (antibody, V domains shown)
VH: QVQLQESGPGILKPSQTLSLTCSFSGFSLSTSGMGVGWIRQPSGKGLERLAHIWWDDDKYYNPSLKSQLTISKDTSRNQVFLKIISVDTADTATYYCARKDYGSSYDYRGQGTTVTVS
VL: DIELTQSPASLAVSLGQRATISCKASQSVDYDGDSYLNRFQQKPGQPPKLLIYTASNLESGIPARFSGSGSGTDFTLNIHPVEEEDAATYYCQQSNEDPWTFGGGTKLEIKR
Epitope targeted: target an epitope that resides within the C-terminus of human ANGPTL4
